Source: US6808930B1, “Therapeutic agents” (priority 1997, dated 2004)

How the values were obtained:
A549 cells [1] = test: Cell viability by trypan blue exclusion; format: cell-based, human
Description: (§1) Remaining cells were analysed for DNA fragmentation.

HRTEC cells [2] = test: Cell viability by trypan blue exclusion; format: cell-based, human
Description: as §1

L1210 cells [3] = test: Subcellular fractionation of cells exposed to 125I-labelled protein; format: cell-based, murine
Description: (§2) The intracellular distribution of MAL was further analysed in cells exposed to ^125I-labelled MAL with ^[…] α-lactalbumin and IgG as controls (FIG. 4). Subcellular fractions were prepared after mechanic disruption of the cells and the amount of radiolabelled MAL in each fraction was determined in relation to the total cell-associated radioactivity measured prior to disruption of the cells. Fraction P1 contained mostly cell nuclei, P2 contained plasma-Golgi-, ER-membranes and mitochondria, P3 contained small vesicles and the supernatant. Fraction S contained the cytosolic proteins. The purity of the fractions was determined by quantitation of specific markers (DNA, alkaline phosphatase, RNA and catalase).
(§3) Specifically, cellular subfractionation was performed as described (J. Graham., Isolation of subcellular organelles and membranes., p161-1019. In D. Rickwood ed., Centrifugation, a practical approach, 2nd ed. IRL Press, Washington D.C.). L1210, A549 or HRTEC cells in suspension (3×10^6 cells/ml, 100 μla were incubated with 1×10^6 cpr of ^125I-labelled MAL, ALA or IgG for various times at 37° C. The cells were washed three times with ice-cold PBS and the supernatants were discarded. The cells were suspended in 500 μl of homogenisation buffer (10 mM Tris-HCl, pH 7.8, 5 mM MgCl2 and 2 mM CaCl2 for L1210 cells and 0.15M NaCl, 2 mM EDTA, pH 7.5 for A549 cells), and homogenised by 50 strokes in a Dounce homogenizer (Thomas, Philadelphia, USA) with pestle size 415. Sucrose was added to a final concentration of […] and the homogenate was centrifuged at 100×g for 25 min at RT. The first pellet contained nuclei, large mitochondria and large sheets of plasma membrane. The remaining supernatant was further centrifuged at 12 000×g for 30 min at 4° C. resulting in a second pellet containing mitochondria endoplasmic reticulum, plasma membrane and cytoplasmic organelles. The supernatant was finally centrifuged at 150,000×g for 2 h at 4° C. resulting in a pellet containing small vesicles, endoplasmic reticulum and a supernatant containing cytosolic proteins.

L1210 cells [4] = test: DNA fragmentation by gel electrophoresis and FIGE; format: cell-based, murine
Description: as §1

L1210 cells [5] = test: Cell surface binding of biotinylated protein, flow cytometry; set-up: species or system murine; details: biotinylated MAL
Description: (§4) MAL, human α-lactalbumin (HLA) and immunoglobulin G were biotinylated according to the manufacturer's instructions or labelled with ^125I with the lactoperoxidase method. Proteins were dissolved in PBSA-T buffer (30 mM Na2HPO4, 120 mM NaCl, pH 7.4, with 0.1% NaAzid, 0.05% Tween-20) and 25 μl of protein (25 μg) was incubated with 2 μl of ^125([…]), 2 μl of lactoperoxidase (2.5 mg/ml) and 2 μl of H2O2 (diluted 1:2000 in PBS) for 2 min at room temperature. The reaction was stopped by the addition of 500 μl of PBSA-T. The labelled protein was purified on a PD-10 column. 500 μl fractions in PBSA-T were eluted and fractions containing radioactivity were stored at […]. […] L1210, A549 and HRTEC cells (3×10^6 cells/ml, 50 μl) were incubated in suspension with 50 μl of biotinylated MAL, ALA or BSA for various times at 37° C. The cells were washed with PBS by centrifugation at 320×g for 10 min and the supernatant was discarded. FITC-conjugated streptavidin (diluted 1:50 in PBS) was added and the cells were incubated for 30 min at room temperature. The cells were washed by centrifugation as above, suspended in 300 μl PBS and the surface fluorescence was analysed by flow cytometry on a Coulter Epics Profile II flow cytometer (Coulter Inc.), equipped with a 488 nm argon laser. Green fluorescence was detected with a 525 nm band pass filter. The PMT voltage was initially set to 1250 V and adjusted for day to day variation using calibration with Immunobeads (Coulter).

A549 cells [6] = test: Cell surface binding of 125I-labelled protein, cell associated radioactivity; set-up: species or system human; details: 30 min exposure to 2×10^6 cpm of 125I-labelled protein
Description: (§5) Cell surface binding of MAL was also quantitated as the cell associated radioactivity during the first 30 min after addition of ^125I-labelled MAL to the cells (FIG. 2B). […]

HRTEC cells [7] = test: as above; set-up: species or system human; details: 30 min exposure to 2×10^6 cpm of 125I-labelled protein
Description: as §5

A549 cells [8] = test: Cell surface binding of biotinylated protein, flow cytometry; set-up: species or system human; details: biotinylated MAL, 30 min; second of three cell types (A549 by order)
Description: as §4, with “The PMT voltage was initially set to 1250 V and adjusted for day to day variation using calibration with Immunobeads (Coulter).” left out

HRTEC cells [9] = test: as above; set-up: species or system human; details: biotinylated MAL, 30 min; third of three cell types (HRTEC by order)
Description: as §4, with “The PMT voltage was initially set to 1250 V and adjusted for day to day variation using calibration with Immunobeads (Coulter).” left out

A549 cells [10] = test: Subcellular fractionation of cells exposed to 125I-labelled protein; format: cell-based, human
Description: as §2, §3

HRTEC cells [11] = test: as above; format: cell-based, human
Description: as §2, §3

[12] = stated for the three cell types

B1: MAL: protein complex from human milk casein containing oligomeric forms of α-lactalbumin; the apoptosis-inducing fraction (protein, UniProt P00709 20-142, looked up)
Alpha-lactalbumin: KQFTKCELSQLLKDIDGYGGIALPELICTMFHTSGYDTQAIVENNESTEYGLFQISNKLWCKSSQVPQSRNICDISCDKFLDDDITDDIMCAKKILDIKGIDYWLAHKALCTEKLEQWLCEKL
modifications: oligomeric form from milk casein
notes: protein complex from human milk casein containing oligomeric forms of α-lactalbumin; the apoptosis-inducing fraction
- sensitivity to MAL-induced apoptosis (A549 cells [1]): intermediately sensitive
- cell viability (HRTEC cells [2]; HRTEC cells, 24 h incubation with up to 4 mg/ml): remained fully viable
- sensitivity to MAL-induced apoptosis (HRTEC cells [2]; non-transformed cultures (HRTEC), within the tested concentration range): resistant
- share of total cell associated radioactivity in nuclear fraction (P1) (L1210 cells [3]; 6 h, 125I-labelled): about 78%
- total cell associated radioactivity (L1210 cells [3]; 6 h, 125I-labelled, denominator in brackets): 44000
- radioactivity in nuclear fraction (P1) (L1210 cells [3]; 6 h, 125I-labelled, numerator in brackets): 34200
- radioactivity in cytosolic fraction (L1210 cells [3]; final time-point): 4500 cpm
- radioactivity in pellet 2 (L1210 cells [3]; final time-point): 4500 cpm
- radioactivity in pellet 3 (L1210 cells [3]; final time-point): 800 cpm
- share of radioactivity in cytosolic fraction (L1210 cells [3]; final time-point): 10%
- share of radioactivity in pellet 2 (L1210 cells [3]; final time-point): 10%
- share of radioactivity in pellet 3 (L1210 cells [3]; final time-point): 2%
- time at which fragmentation of DNA was first seen (L1210 cells [4]; 0.3 mg/ml): 6 h
- incubation time after which HMW DNA fragments were observed (L1210 cells [4]; 0.5 mg/ml): 30 min
- incubation time after which oligonucleosome length DNA fragments were detected (L1210 cells [4]; 0.5 mg/ml): three
- time at which fragmentation of DNA was seen (L1210 cells [4]; 0.75 mg/ml): 2 h
- fluorescence intensity of cell surface binding (L1210 cells [5]; 30 min, first of three cell types (L1210 by order)): 12.1 times that of the streptavidin control
- time after which cell surface binding reached a maximum (L1210 cells [5]; [12]): 30 min
- time after which cell surface binding was detected (L1210 cells [5]; [12]): 10 min
- cell surface binding, cell associated radioactivity (A549 cells [6]): 20 000 cpm
- cell surface binding, cell associated radioactivity (HRTEC cells [7]): 18 000 cpm
- fluorescence intensity of cell surface binding (A549 cells [8]): 13.4 times that of the streptavidin control
- fluorescence intensity of cell surface binding (HRTEC cells [9]): 8.5 times that of the streptavidin control
- total cell associated radioactivity (A549 cells [10]; 24 h, denominator in brackets): 27000
- radioactivity in nuclear fraction (P1) (A549 cells [10]; 24 h, numerator in brackets): 13700
- radioactivity in cytosolic fraction (A549 cells [10]; final time-point): 6800 cpm
- radioactivity in pellet 2 (A549 cells [10]; final time-point): 5100 cpm
- radioactivity in pellet 3 (A549 cells [10]; final time-point): 1400 cpm
- share of radioactivity in cytosolic fraction (A549 cells [10]; final time-point): 25%
- share of radioactivity in pellet 2 (A549 cells [10]; final time-point): 19%
- share of radioactivity in pellet 3 (A549 cells [10]; final time-point): 5%
- share of total cell associated radioactivity in nuclear fraction (P1) (HRTEC cells [11]; 24 h, 125I-labelled): 16%
- total cell associated radioactivity (HRTEC cells [11]; 24 h, denominator in brackets): 14000
- radioactivity in nuclear fraction (P1) (HRTEC cells [11]; 24 h, numerator in brackets): 2200
- radioactivity in cytosolic fraction (HRTEC cells [11]; final time-point): 8600 cpm
- radioactivity in pellet 2 (HRTEC cells [11]; final time-point): 2100 cpm
- radioactivity in pellet 3 (HRTEC cells [11]; final time-point): 1100 cpm
- share of radioactivity in cytosolic fraction (HRTEC cells [11]; final time-point): 61%
- share of radioactivity in pellet 2 (HRTEC cells [11]; final time-point): 15%
- share of radioactivity in pellet 3 (HRTEC cells [11]; final time-point): 8%
